The series deals with Bacillus subtilis. As to the kind of experiment: cleaved RNA product abundance (RNA/gDNA barcode ratio) relative to median wild-type variant (ratio to wild type); higher = more accumulation of the downstream cleavage product. As to the method: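 MPRA in B. subtilis. Mutagenized RNase Y cleavage-site regions (9% mutation rate) were inserted into a barcoded reporter mRNA (truncated aprE or tetM). Cells were grown in LB at 37°C to OD600 0.3. The cleaved RNA isoform was gel-purified and its barcodes counted; the RNA:gDNA barcode ratio was normalised to the median wild-type variant, and the median over barcodes is reported per variant. The printed sequence is the variable window only; the reporter flanks are not printed.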

[1] abbreviates: experiment (reporter, strain, medium): exp 2b: truncated aprE reporter, strain BJT200, cleavage site: cggR-gapA (positions -7 to +36 mutated).
[2] abbreviates: experiment (reporter, strain, medium): exp 4a: truncated aprE reporter, strain BJT201 with 2% xylose (RNase J1 expressed), cleavage site: cggR-gapA (positions -7 to +36 mutated).
Where [3] appears, read: experiment (reporter, strain, medium): exp 8a: truncated aprE reporter, strain BJT201 with 2% xylose (RNase J1 expressed), cleavage site: glnRA (positions -5 to +31 mutated).
Setting [4] is: experiment (reporter, strain, medium): exp 6: tetM reporter, strain 168, cleavage site: cggR-gapA (positions -7 to +36 mutated).

Regarding “ACAGACGAAGGAGCCGCAATGAAGTTATTAAGCGATGAATAATCCCTCAATATAAATATCTCTCACTTATTTAAA”, the “cleaved RNA product abundance” value under setting [1] came to 0.0928 and the “cleaved RNA product abundance” value under setting [2] came to 0.108.
In the same order, the values of “ACAGACGAAGGAGCCGCAAAGAAGTGATTAAGGGATTAATAATCCCTCAATATAAATATCTCTCACTTATTTAAA” are 0.459 and 0.325.
For the sequence “ACAGACGAAGGAGCCGCAAAGAAGTTATTAAGGGATGAATAATCCCTCAGAATAAATATCTCTCACTTATTTAAA”, under setting [2], the “cleaved RNA product abundance” value is 0.197.
“CGACATGTCCCGCTTCTTTCATTAAACCGTTAGCAACTGTTTTGCTTTATACATTTACCTTTTAAGAGGAGGAAT”: under setting [3], the “cleaved RNA product abundance” value turned out to be 0.165.
Take “ACAGACGAAGGAGCCGCAAAGAAGTTGTTAAGGGATGAATAATCCCTCAATATAAATATCTCTCACTTATTTAAA”: the “cleaved RNA product abundance” value by setting is: under setting [1], 0.357; under setting [2], 0.453; under setting [4], 0.537.
As for “ACAGACGAAGGAGCCGCAAAGAAGTTATTAAGTGATGAATAAACCCTCAATATAAATATCTCTCACTTATTTAAA”, the “cleaved RNA product abundance” value is, setting by setting: under setting [1], 0.113; under setting [2], 0.0945.
On to “CGACATGTCCCGCTTCTTTCATTAATCCGTTAGCAACTATTTTGCCATATACATTTACCTTTTAAGAGGAGGAAT”, for which the “cleaved RNA product abundance” value under setting [3] came out at 0.121.
In the case of “ACAGACGAAGGAGCCGCAAAGTAGTTATTAAGGGATGAATAATCCCTCAATTTAAATATCTCTCACTTATTTAAA”, under setting [2], the “cleaved RNA product abundance” value was found to be 0.221.
For “ACAGACGAAGGAGCCGCAAAGAAGTTATTAAGGGATGAATAATCACTCAATATACATATCTCTCACTTATTTAAA”, under setting [2], the “cleaved RNA product abundance” value came out at 0.109.
With “ACAGACGAAGGAGCCGCAAAGAAGTTATTCAGGGTTGAATAATCCCTCAATATAAATATCTCTCACTTATTTAAA”, the “cleaved RNA product abundance” value under setting [2] was 0.412.
In the case of “CGACATGTCCCGCTTCTTTCATTAATCTGTTAGCAACTGTTTTTCTATATACATTTACCTTTTAAGAGGAGGAAT”, the “cleaved RNA product abundance” value under setting [3] was 0.483.
Same read-out and setting: the same measure for “CGACATGTCCCGCTTCTTTCATTAATACGTTAGCAACTGTTATGCTATATACATTTACCTTTTAAGAGGAGGAAT”: 0.886.
Turning to “ACAGACGAAGGAGCCGCAAAGAAATTATTAAGGGATGAATAATCACTCAATATAAATATCTCTCACTTATTTAAA”, the “cleaved RNA product abundance” value came out at 0.136 under setting [1] and 0.122 under setting [2].
For the sequence “CGACATGTCCCGCTTCTTTCATTAATCCTTTAGCAACTATTTTGCTATATACATTTACCTTTTAAGAGGAGGAAT”, the “cleaved RNA product abundance” value under setting [3] amounted to 0.828.
Regarding “CGACATGTCCCGCTTCTTTCATTAATCCCTTAGCAACTGTTTTGCTATATACATATACCTTTTAAGAGGAGGAAT”, the “cleaved RNA product abundance” value under setting [3] worked out at 0.267.
As to “ACAGACGAAGGAGCCGCAAAGAATTTATTAAGGGATGAATAAACCCTCAATATAAATATCTCTCACTTATTTAAA”, the “cleaved RNA product abundance” value is 0.322 under setting [1] and 0.292 under setting [2].
Consider “ACAGACGAAGGAGCCGCAAAAAAGTTATTAAGGGATGAATAATCCCTCAATATAAATAACTCTCACTTATTTAAA”, for which the “cleaved RNA product abundance” value under setting [2] turned out to be 1.13.
Consider “ACAGACGAAGGAGCCGCAAAGAAGTTATTAAGGAATGAATAATCCCTCAATATAAATAGCTCTCACTTATTTAAA”, for which the “cleaved RNA product abundance” value was 0.108 under setting [1] and 0.095 under setting [2].
On to “ACAGACGAAGGAGCCGCAAAGAAGTTGTTAAGGGATGAATAATCCCTCAATATAAATACCTCTCACTTATTTAAA”, for which the “cleaved RNA product abundance” value under setting [2] turned out to be 0.182.
On to “ACAGACGAAGGAGCCGCAAAGACGTTATTAAGGGATGAATAATCCTTCAATATAAATATCTCTCACTTATTTAAA”, for which, under setting [1], the “cleaved RNA product abundance” value came to 0.427.
For “CGACATGTCCCGCTTCTTTCATTAATCCATTAGCAACTGTTCTGCTATATACATTTACCTTTTAAGAGGAGGAAT”, the “cleaved RNA product abundance” value under setting [3] is 0.271.
Turning to “ACAGACGAAGGAGCCGCAAAGAAGTTATTAAGGGATGAATAATCCCGCAATATATATATCTCTCACTTATTTAAA”, the “cleaved RNA product abundance” value under setting [2] amounted to 0.139.
Regarding “ACAGACGAAGGAGCCGCAAAGAAGTTATTAAGGTCTGAATAATCCCTCAATATAAATATCTCTCACTTATTTAAA”, the “cleaved RNA product abundance” value by setting is: under setting [2], 0.0753; under setting [4], 0.101.
Regarding “ACAGACGAAGGAGCCGCAAAGAAGTTATTAAGGGATGAATAAACCCTCAATATAATTATCTCTCACTTATTTAAA”, the “cleaved RNA product abundance” value by setting is: under setting [1], 0.293; under setting [2], 0.33.
As to “ACAGACGAAGGAGCCGCAAAGAAGTTATTAAGGGATGAAAAATCCCTCAATATAAACATCTCTCACTTATTTAAA”, the “cleaved RNA product abundance” value under setting [2] came to 0.772.
Take “CGACATGTCCCGCTTCTTTCATTAATCCGTTAGCATCTGTTTTGCTATATACATATACCTTTTAAGAGGAGGAAT”: the “cleaved RNA product abundance” value under setting [3] stood at 0.727.
Still for that read-out and setting: the same measure for “CGACATGTCCCGCTTCTTTCATTAATCCGTTTGCAACTGTTTTGCTATATACATTTACATTTTAAGAGGAGGAAT”: 0.626.
For the sequence “ACAGACGAAGGAGCCGCAAAGAAGTTATTAAGGGATGAATAATCCTTCAAAATAAATATCTCTCACTTATTTAAA”, the “cleaved RNA product abundance” value by setting is: under setting [1], 0.259; under setting [2], 0.253.
Take “ACAGACGAAGGAGCCGCAAAGAAGTTATTAAGGGATGAATAATCCACCAATATAAATATCTCTCACTTATTTAAA”: the “cleaved RNA product abundance” value runs as follows: under setting [1], 0.186; under setting [2], 0.142.
As to “CGACATGTCCCGCTTCTTTCATTAATCTGTTAGCAACTGTTTTGCTATATACATTTACCTTTTAAGAGGAGGAAT”, the “cleaved RNA product abundance” value under setting [3] is 1.16.
Same read-out and setting: under “CGACATGTCCCGCTTCTTTCATTACTCCGTTAGCAACTGTTTTGCTATATAAATTTACCTTTTAAGAGGAGGAAT” stands 0.276.
As to “ACAGACGAAGGAGCCGCATAGAAGTTATTAAGGAATGAATAATTCCTCAATATAAATATCTCTCACTTATTTAAA”, the “cleaved RNA product abundance” value under setting [2] was 0.893.
On to “ACAGACGAAGGAGCCGCAAAGAAGTTATGACGGGATGAATAATCCCTCAATATAAATATCTCTCACTTATTTAAA”, for which, under setting [2], the “cleaved RNA product abundance” value came out at 0.844.
On to “ACAGACGAAGGAGCCGCAAAGAAGTTATTAAAGGATGAATAATACCTCAATATAAATATCTCTCACTTATTTAAA”, for which the “cleaved RNA product abundance” value is, setting by setting: under setting [1], 0.0942; under setting [2], 0.121; under setting [4], 0.108.
On to “CGACATGTCCCGCTTCTTTCATTATTCCGTTAGCAACTGTTTTGCTATATTCATTTACCTTTTAAGAGGAGGAAT”, for which the “cleaved RNA product abundance” value under setting [3] was found to be 0.669.
As for “CGACATGTCCCGCTTCTTTCATTAATTCGTTAGTAACTGTTTTGCTATATACATTTACCTTTTAAGAGGAGGAAT”, the “cleaved RNA product abundance” value under setting [3] is 0.445.
Take “ACAGACGAAGGAGCCGCAAAGAAGTTATTAAGGGATGAATAATCCCTAAATATAAAGATCTCTCACTTATTTAAA”: the “cleaved RNA product abundance” value under setting [2] is 0.356.
With “CGACATGTCCCGCTTCTTTCATTAATCCGTTAGCAACTGTTTTACTATATTCATTTACCTTTTAAGAGGAGGAAT”, under setting [3], the “cleaved RNA product abundance” value turned out to be 0.189.
Still for that read-out and setting: under “CGACATGTCCCGCTTCTTTCATTAATCCATTAGCAAATGTTTTGCTATATACATTTACCTTTTAAGAGGAGGAAT” stands 1.18; under “CGACATGTCCCGCTTCTTTCATTAATCCGTTTGCAACTGTTTTGATATATACATTTACCTTTTAAGAGGAGGAAT”, 0.421; under “CGACATGTCCCGCTTCTTTCATTAATCCGTTAGAAACTGTTTTGCTATATACACTTACCTTTTAAGAGGAGGAAT”, 0.157.
On the same count and under the same terms, under “CGACATGTCCCGCTTCTTTCATTAATCCGTTAGCAACCGTTTTGCTATATACATTTACCTTTTAAGAGGAGGAAT” stands 0.617.
Take “ACAGACGAAGGAGCCGCAAAGAAGTTATTAAGGGTTGAATAATCACTCAATATAAATATCTCTCACTTATTTAAA”: the “cleaved RNA product abundance” value is, setting by setting: under setting [1], 0.098; under setting [2], 0.127.
“ACAGACGAAGGAGCCGCAAAGAAGTTATTGAGGCATGAATAATCCCTCAATATAAATATCTCTCACTTATTTAAA”: the “cleaved RNA product abundance” value turned out to be 0.0906 under setting [1] and 0.0717 under setting [2].
For the sequence “ACAGACGAAGGAGCCGCAAAAAAGTTATTAAGGGATGAATAATCCCTCAAAATAAATATCTCTCACTTATTTAAA”, the “cleaved RNA product abundance” value reads like this: under setting [1], 0.349; under setting [2], 0.376.
Taken in the same sequence, the figures for “ACAGACGAAGGAGCCGCAAAGAAGTTATTAAGGGATAAATAATCCCTAAATATAAATATCTCTCACTTATTTAAA” were 0.597 and 0.734.
With “ACAGACGAAGGAGCCGCATAGAAGTTATTAAGGGATGAATAATCCGTCAATATAAATATCTCTCACTTATTTAAA”, the “cleaved RNA product abundance” value under setting [2] was 0.235.
As to “ACAGACGAAGGAGCCGCAAAGAAGTTATTAAGGGATGAATAATCCCTCAATATAAATAGCTCTCACTTATTTAAA”, the “cleaved RNA product abundance” value under setting [1] is 0.637, the “cleaved RNA product abundance” value under setting [2] came to 0.616 and the “cleaved RNA product abundance” value under setting [4] stood at 0.688.
As to “CGACATGTCCCGCTTCTTTCATTAATCCGTTAGCAACTGTTTTGCTATAAACATTTATCTTTTAAGAGGAGGAAT”, the “cleaved RNA product abundance” value under setting [3] stood at 0.717.
Take “ACAGACGAAGGAGCCGCAAAGTAGTTATTAAGGGATGAATAATTCCTCAATATAAATATCTCTCACTTATTTAAA”: the “cleaved RNA product abundance” value under setting [2] came out at 0.75.
As for “CGACATGTCCCGCTTCTTTCATTAATCCGTTAGCACCTGTTTTGCTATATACATTTACTTTTTAAGAGGAGGAAT”, under setting [3], the “cleaved RNA product abundance” value was 0.499.
